The data set deals with the molecule itself. As to the kind of experiment: cryo-EM structure; single-particle cryo-EM of purified ASOR at pH 7.5 (digitonin, GDN or saposin nanodiscs) and at pH 4.5 (GDN or saposin nanodiscs; sodium citrate added); 5 mM Hepes, 150 mM NaCl; C3 symmetry; resting, activated and desensitized conformations.

B1: human ASOR (TMEM206) proton-activated chloride channel (natural protein)
chain: not shown
notes: full-length human ASOR (TMEM206), UniProt Q9H813; codon-optimised synthetic cDNA; GFP tag removed with PreScission protease; residues left by the cleavage site are not described; also called PAC; acid-sensitive outwardly rectifying channel; not shown: GFP, C-terminal, cleaved
Regarding B1, the stoichiometry N (as a rule, the number of molecules, sites or subunits per partner or assembly) was 3.

The values above are taken from PMC8809534, “Gating choreography and mechanism of the human proton-activated chloride channel ASOR” (Science Advances, 2022).
